Measurements reported in the supplement of paper PMC9876800.

Test system: peptide library, one residue held at a place counted from the S/T acceptor
Assay: relative phosphorylation of the sub-library (ratio to the mean residue at this position); higher = residue favoured
Details: human
Method in brief: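 Spots on streptavidin membranes were phosphorimaged and quantified by densitometry to measure phosphorylation of biotinylated degenerate peptide sub-libraries by purified recombinant kinases, human or orthologue constructs. The reactions ran in 384-well plates for 90 min under kinase-specific conditions, with peptides at 50 μM and 50 μM ATP spiked with γ-32P-ATP. Relative sub-library phosphorylation is the ratio to the mean residue at that position.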

Chain of STK11, construct: Full length (Q15831 whole entry, looked up): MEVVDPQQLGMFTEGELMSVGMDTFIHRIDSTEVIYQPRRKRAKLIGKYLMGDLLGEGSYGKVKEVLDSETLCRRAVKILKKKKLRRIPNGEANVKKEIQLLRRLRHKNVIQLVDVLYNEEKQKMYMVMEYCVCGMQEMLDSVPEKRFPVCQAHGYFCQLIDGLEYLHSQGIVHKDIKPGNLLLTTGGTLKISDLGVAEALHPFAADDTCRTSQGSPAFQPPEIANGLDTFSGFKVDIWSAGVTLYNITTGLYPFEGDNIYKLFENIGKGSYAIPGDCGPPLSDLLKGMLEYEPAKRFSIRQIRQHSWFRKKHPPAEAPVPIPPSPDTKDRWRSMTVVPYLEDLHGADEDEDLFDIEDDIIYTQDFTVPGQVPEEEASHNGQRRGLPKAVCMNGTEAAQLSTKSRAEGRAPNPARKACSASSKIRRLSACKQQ
Chain of BRAF, construct: aa444-721 (P15056 444-721, looked up): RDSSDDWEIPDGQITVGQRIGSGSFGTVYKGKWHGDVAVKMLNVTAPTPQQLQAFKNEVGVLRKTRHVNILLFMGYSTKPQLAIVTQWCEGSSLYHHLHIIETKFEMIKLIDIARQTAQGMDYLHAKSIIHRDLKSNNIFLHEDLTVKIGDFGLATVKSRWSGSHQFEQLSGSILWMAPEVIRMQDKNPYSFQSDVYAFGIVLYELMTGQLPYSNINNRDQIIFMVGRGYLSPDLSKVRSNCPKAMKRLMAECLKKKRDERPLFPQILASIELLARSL
Chain of RPS6KA2, construct: Full length (Q15349 whole entry, looked up): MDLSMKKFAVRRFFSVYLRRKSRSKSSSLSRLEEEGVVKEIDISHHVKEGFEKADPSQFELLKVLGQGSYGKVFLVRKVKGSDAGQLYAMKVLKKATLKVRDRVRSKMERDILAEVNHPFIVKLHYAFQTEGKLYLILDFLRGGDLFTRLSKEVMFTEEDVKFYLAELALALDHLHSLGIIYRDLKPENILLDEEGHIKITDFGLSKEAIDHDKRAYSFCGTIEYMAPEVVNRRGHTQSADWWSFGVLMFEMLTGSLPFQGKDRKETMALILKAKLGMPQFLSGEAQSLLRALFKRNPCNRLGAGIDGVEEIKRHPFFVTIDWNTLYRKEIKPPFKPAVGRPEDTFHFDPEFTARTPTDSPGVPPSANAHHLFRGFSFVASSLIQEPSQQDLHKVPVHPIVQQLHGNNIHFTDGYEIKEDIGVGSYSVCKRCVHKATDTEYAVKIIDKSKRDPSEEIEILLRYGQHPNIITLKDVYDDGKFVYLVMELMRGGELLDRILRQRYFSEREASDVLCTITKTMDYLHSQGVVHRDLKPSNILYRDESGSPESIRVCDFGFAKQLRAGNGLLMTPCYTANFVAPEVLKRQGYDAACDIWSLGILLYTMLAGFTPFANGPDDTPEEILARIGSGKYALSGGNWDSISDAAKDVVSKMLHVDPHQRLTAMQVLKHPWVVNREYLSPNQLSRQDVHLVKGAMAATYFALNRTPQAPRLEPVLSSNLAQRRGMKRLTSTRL

STK11, construct: Full length (from UniProt Q15831)
relative phosphorylation
Details	at +1	at +2	at +3	at +4	at -1	at -2	at -3	at -4	at -5
A fixed	1.07	1.17	0.932	1.03	1.34	0.926	0.956	0.936	1.22
D fixed	0.613	0.987	0.787	0.832	0.726	0.407	0.289	0.773	0.827
E fixed	0.417	0.598	0.688	0.75	0.874	0.338	0.312	0.738	0.641
F fixed	0.801	0.907	0.891	0.898	0.582	0.932	1.81	1.5	0.939
G fixed	1.26	1.12	1.62	1.31	0.854	0.82	1.99	1.06	1.28
H fixed	1.27	1.22	1.36	1.13	1.22	0.924	1.17	1.13	1.07
I fixed	0.653	0.711	0.579	0.741	0.349	1.81	0.441	0.485	0.492
K fixed	0.647	0.595	0.892	1.11	1.59	0.867	0.95	0.857	1.49
L fixed	0.974	0.701	0.766	0.952	0.777	2.39	1.14	0.627	0.566
M fixed	1.16	0.714	0.699	0.813	1.3	1.12	1.48	0.685	0.775
N fixed	1.53	1.07	1.21	1.08	1.22	1.06	0.721	0.859	1.19
P fixed	0.597	1.86	1.55	1.71	0.472	0.709	1.16	1.27	1.86
Q fixed	1.57	0.922	1.14	1.17	1.62	0.836	0.728	0.799	0.901
R fixed	1.34	0.692	1.02	0.953	1.84	1.19	0.765	0.828	1.27
V fixed	0.654	0.882	0.7	0.724	0.495	1.06	0.385	0.498	0.532
W fixed	1.36	1.66	1.15	1	0.848	0.712	1.29	2.99	1.17
Y fixed	1.07	1.19	1.01	0.796	0.897	0.903	1.41	0.959	0.775
pThr fixed	0.539	0.947	0.782	0.571	0.36	0.852	0.662	0.713	0.84
pTyr fixed	0.43	0.743	0.736	0.581	0.559	0.553	0.746	0.632	0.897

MAP3K2, construct: Full length (from UniProt Q9Y2U5)
relative phosphorylation
Details	at +1	at +2	at +3	at +4	at -1	at -2	at -3	at -4	at -5
A fixed	1.01	0.873	0.802	1.04	1.04	1.2	0.975	1.07	1.12
D fixed	0.302	0.413	0.63	0.567	1.08	1.6	1.61	1.5	1.37
E fixed	0.296	0.344	0.477	0.691	0.935	0.953	1.53	1.43	1.16
F fixed	0.82	0.696	1.46	0.775	0.673	1.1	0.782	1.01	0.923
G fixed	0.868	0.663	0.865	0.981	1.41	1.27	1.65	1.23	1.22
H fixed	0.954	2.2	1.06	0.983	1.36	1.1	0.891	1.02	1.06
I fixed	1.59	0.632	1.09	0.877	0.549	0.82	0.608	0.73	0.828
K fixed	0.721	1.51	1.09	1.9	1.19	0.765	0.988	0.946	1.07
L fixed	1.29	0.694	1.16	0.918	0.904	0.704	0.698	0.749	0.743
M fixed	1.82	1.02	1.1	0.947	1.11	0.866	0.937	0.898	0.869
N fixed	0.614	0.902	0.914	0.703	1.17	0.829	1.08	0.96	0.883
P fixed	0.409	0.403	0.574	1.25	0.643	0.838	1.03	1.02	0.992
Q fixed	1.02	1	0.905	1.12	1.11	0.853	0.817	0.793	0.751
R fixed	1.09	1.94	1.32	1.68	1.39	0.757	1.18	0.978	0.95
V fixed	1.46	0.828	0.856	0.816	0.726	0.979	0.698	0.849	1.02
W fixed	1.81	0.986	1.51	0.909	0.662	0.919	0.747	0.952	1.08
Y fixed	0.926	1.89	1.2	0.853	1.04	1.46	0.778	0.868	0.959
pThr fixed	0.643	0.47	0.597	0.761	0.708	1.3	1.91	1.23	1.59
pTyr fixed	0.42	0.412	0.645	0.546	1.08	2.07	1.3	1	1.21

BRAF, construct: aa444-721 (from UniProt P15056)
relative phosphorylation
Details	at +1	at +2	at +3	at +4	at -1	at -2	at -3	at -4	at -5
A fixed	0.66	0.762	0.791	0.965	1.06	1.07	1.09	0.86	1.06
D fixed	0.675	1.38	0.941	1.09	1.92	0.748	0.994	1.52	1.48
E fixed	1.3	0.94	0.898	0.966	1.36	1	1.01	1.21	1.18
F fixed	1.44	0.67	1.06	0.762	0.539	0.983	0.935	0.684	0.7
G fixed	0.592	0.644	0.953	1.15	1.05	0.572	0.752	0.953	0.991
H fixed	0.864	1.49	0.97	1.09	1.78	1.26	0.902	0.908	1.11
I fixed	1.95	1.09	1.1	0.733	0.422	1.64	0.712	0.488	0.701
K fixed	0.533	0.749	0.714	1.11	0.775	0.686	1.34	0.743	1.32
L fixed	1.22	0.773	1.25	0.842	0.609	1.05	1.51	0.596	0.762
M fixed	1.26	1.23	1.22	0.826	1.23	0.931	1.27	0.629	0.897
N fixed	0.849	1.5	1.13	1.24	1.77	0.932	0.861	0.905	1.14
P fixed	0.377	0.631	0.805	1.57	0.337	0.499	0.666	0.945	1.15
Q fixed	0.956	1.51	0.995	1	1.14	0.892	0.929	0.765	0.889
R fixed	0.673	0.848	0.902	1.08	1.17	0.839	1.46	0.629	1.06
V fixed	1.76	1.2	0.935	0.661	0.504	1.55	0.707	0.546	0.687
W fixed	0.769	0.802	1.44	1.1	0.589	1.09	1.13	3.93	1.01
Y fixed	1.12	0.776	0.898	0.813	0.775	1.25	0.725	0.69	0.859
pThr fixed	1.08	0.723	0.835	0.85	0.577	0.992	0.807	0.776	0.945
pTyr fixed	0.912	0.736	0.945	0.792	1.13	1.58	0.734	0.655	1

RPS6KA2, construct: Full length (from UniProt Q15349)
relative phosphorylation
Details	at +1	at +2	at +3	at +4	at -1	at -2	at -3	at -4	at -5
A fixed	0.795	1.22	1.14	1.18	0.925	0.766	0.741	1.41	1.13
D fixed	0.457	0.669	0.976	0.77	0.569	0.763	0.455	0.572	0.435
E fixed	0.806	0.601	0.792	0.661	0.505	0.589	0.562	0.639	0.417
F fixed	1.32	0.708	0.99	0.844	0.752	0.54	0.373	0.851	0.915
G fixed	0.658	1.24	1.21	1.22	1.21	0.914	0.583	1.12	1.1
H fixed	1.31	1.66	1.19	1.32	1.18	1.26	0.672	1.1	1.11
I fixed	1.22	0.994	0.855	0.88	0.384	0.502	0.308	0.657	0.72
K fixed	0.972	1.04	1.03	1.22	1.5	2.21	1.47	1.58	2
L fixed	0.925	0.616	1.04	0.839	0.916	1.05	0.311	0.801	0.862
M fixed	1.09	0.742	0.912	0.887	1.12	0.761	0.449	0.916	0.715
N fixed	0.769	0.781	0.706	0.68	1.16	0.697	0.434	0.743	0.755
P fixed	0.338	0.794	1.04	1.27	1.58	0.467	0.632	0.984	0.865
Q fixed	0.925	0.566	0.717	0.916	0.861	0.879	0.603	0.956	0.702
R fixed	0.998	1.82	1.09	0.886	1.6	4.34	8.11	2.03	3.49
V fixed	1.75	1.11	0.92	0.819	0.683	0.35	0.365	0.786	0.713
W fixed	1.05	0.973	1.17	1.44	0.793	0.409	0.443	0.954	0.171
Y fixed	1.61	1.47	1.23	1.16	1.26	0.503	0.49	0.894	0.903
pThr fixed	1	0.781	1.22	1.03	0.307	0.308	0.269	0.637	0.391
pTyr fixed	1.55	1.05	1.25	0.999	0.657	0.368	0.555	0.636	0.526
